Consider 39 molecules from patent publication US20170173132A1 (IMMATICS BIOTECHNOLOGIES, published 2017).

The experiment concerns the target T1, HLA-A*02:01 (peptide-receptive MHC class I molecule, heavy chain with β2m light chain) (human).
T1 construct: The UV-sensitive placeholder peptide is cleaved on irradiation and exchanged for the tested peptide
Nature of the experiment: UV-ligand exchange, anti-β2m ELISA; grade of peptide exchange yield (≥10% = +; ≥20% = ++; ≥50 = +++; ≥75% = ++++). The text has this: Candidate peptides for T cell based therapies according to the present invention were further tested for their MHC binding capacity (affinity). The individual peptide-MHC complexes were produced by UV-ligand exchange, where a UV-sensitive peptide is cleaved upon UV-irradiation, and exchanged with the peptide of interest as analyzed. Only peptide candidates that can effectively bind and stabilize the peptide-receptive MHC molecules prevent dissociation of the MHC complexes. To determine the yield of the exchange reaction, an ELISA was performed based on the detection of the light chain (β2m) of stabilized MHC complexes. The assay was performed as generally described in Rodenko et al. (Rodenko et al., 2006).
96 well MAXISorp plates (NUNC) were coated over night with 2 ug/ml streptavidin in PBS at room temperature, washed 4× and blocked for 1 h at 37° C. in 2% BSA containing blocking buffer. Refolded HLA-A*02:01/MLA-001 monomers served as standards, covering the range of 15-500 ng/ml. Peptide-MHC monomers of the UV-exchange reaction were diluted 100-fold in blocking buffer. Samples were incubated for 1 h at 37° C., washed four times, incubated with 2 ug/ml HRP conjugated anti-β2m for 1 h at 37° C., washed again and detected with TMB solution that is stopped with […]. Absorption was measured at 450 nm. Candidate peptides that show a high exchange yield (preferably higher than 50%, most preferred higher than 75%) are generally preferred for a generation and production of antibodies or fragments thereof, and/or T cell receptors or fragments thereof, as they show sufficient avidity to the MHC molecules and prevent dissociation of the MHC complexes.
Background: An ELISA detects its analyte on a solid surface through an enzyme-linked reagent.

Square brackets hold non-standard residues; d marks the D form. Ends that are not written are not given here. pT = C[C@@H](OP(=O)(O)O)[C@H](N)C(=O)O Where only a bound is given, the exact number is not on record here.

B1: peptide GLLGFQAEA (peptide)
peptide: GLLGFQAEA
Molecule B1 had a peptide exchange yield of at least 75%.

B2: peptide YIDGLESRV (peptide)
peptide: YIDGLESRV
Regarding B2, the peptide exchange yield lay within 50 to 75%.

B3: peptide ALEEQLHQV (peptide)
peptide: ALEEQLHQV
Regarding B3, the peptide exchange yield was in the range of 20 to 50%.

B4: peptide GLSYIYNTV (peptide)
peptide: GLSYIYNTV
In turn, B4 returned a peptide exchange yield of 20 to 50%.

B5: peptide SLVEGEAVHLA (peptide)
peptide: SLVEGEAVHLA
B5 came in with a peptide exchange yield of 20 to 50%.

B6: peptide FLVEHVLTL (peptide)
peptide: FLVEHVLTL
B6 showed a peptide exchange yield of at least 75%.

B7: peptide TLLGLAVNV (peptide)
peptide: TLLGLAVNV
B7: the peptide exchange yield is at least 75%.

B8: peptide SLFPSLVVV (peptide)
peptide: SLFPSLVVV
B8 gave a peptide exchange yield of 50 to 75%.

B9: peptide KAFPFYNTV (peptide)
peptide: KAFPFYNTV
Consider B9, for which the peptide exchange yield is 20 to 50%.

B10: peptide FLSSEAANV (peptide)
peptide: FLSSEAANV
As for B10, the peptide exchange yield was in the range of 20 to 50%.

B11: peptide ALEAUQLYL (peptide)
peptide: ALEA[pT]QLYL
For B11, the peptide exchange yield was in the range of 50 to 75%.

B12: peptide LLMUVAGLKL (peptide)
peptide: LLM[pT]VAGLKL
For the molecule B12, the peptide exchange yield is at least 75%.

B13: peptide SLLSEIQAL (peptide)
peptide: SLLSEIQAL
Molecule B13 came in with a peptide exchange yield of at least 75%.

B14: peptide YILLQSPQL (peptide)
peptide: YILLQSPQL
In turn, B14 showed a peptide exchange yield of 50 to 75%.

B15: peptide FLDEEVKLI (peptide)
peptide: FLDEEVKLI
B15 yielded a peptide exchange yield of 50 to 75%.

B16: peptide SMMGLLTNL (peptide)
peptide: SMMGLLTNL
B16 registered a peptide exchange yield of at least 75%.

B17: peptide SLAEPRVSV (peptide)
peptide: SLAEPRVSV
B17 yielded a peptide exchange yield of 50 to 75%.

B18: peptide SLAWDVPAA (peptide)
peptide: SLAWDVPAA
B18 gave a peptide exchange yield of 50 to 75%.

B19: peptide FSFPVSVGV (peptide)
peptide: FSFPVSVGV
Turning to B19, the peptide exchange yield lay in the range of 50 to 75%.

B20: peptide GLVQSLTSI (peptide)
peptide: GLVQSLTSI
Take B20: the peptide exchange yield is at least 75%.

B21: peptide SLNDQGYLL (peptide)
peptide: SLNDQGYLL
Molecule B21 displayed a peptide exchange yield of 50 to 75%.

B22: peptide SLADAVEKV (peptide)
peptide: SLADAVEKV
Consider B22, for which the peptide exchange yield was in the range of 50 to 75%.

B23: peptide GLVATLQSL (peptide)
peptide: GLVATLQSL
Regarding B23, the peptide exchange yield lay within 50 to 75%.

B24: peptide SLFSVPFFL (peptide)
peptide: SLFSVPFFL
As to B24, the peptide exchange yield is at least 75%.

B25: peptide SLLTEPALV (peptide)
peptide: SLLTEPALV
In the case of B25, the peptide exchange yield was 50 to 75%.

B26: peptide ALAGSSPQV (peptide)
peptide: ALAGSSPQV
On to B26, for which the peptide exchange yield was 50 to 75%.

B27: peptide GLLPTSVSPRV (peptide)
peptide: GLLPTSVSPRV
Take B27: the peptide exchange yield lay within 20 to 50%.

B28: peptide KLLDMELEM (peptide)
peptide: KLLDMELEM
The molecule B28 had a peptide exchange yield of at least 75%.

B29: peptide KQLELELEV (peptide)
peptide: KQLELELEV
In turn, B29 showed a peptide exchange yield of 50 to 75%.

B30: peptide ALNPVIYTV (peptide)
peptide: ALNPVIYTV
B30 displayed a peptide exchange yield of 20 to 50%.

B31: peptide TIASSIEKA (peptide)
peptide: TIASSIEKA
Molecule B31 showed a peptide exchange yield of 20 to 50%.

B32: peptide FIIPTVATA (peptide)
peptide: FIIPTVATA
In turn, B32 registered a peptide exchange yield of at least 75%.

B33: peptide GLHSLPPEV (peptide)
peptide: GLHSLPPEV
Molecule B33 registered a peptide exchange yield of 50 to 75%.

B34: peptide KLYEGIPVL (peptide)
peptide: KLYEGIPVL
B34: the peptide exchange yield fell in the range of 20 to 50%.

B35: peptide ILFDVVVFL (peptide)
peptide: ILFDVVVFL
Turning to B35, the peptide exchange yield was 20 to 50%.

B36: peptide ALTALQNYL (peptide)
peptide: ALTALQNYL
For B36, the peptide exchange yield was in the range of 50 to 75%.

B37: peptide FMSKLVPAI (peptide)
peptide: FMSKLVPAI
B37: the peptide exchange yield lay in the range of 50 to 75%.

B38: peptide KMPEHISTV (peptide)
peptide: KMPEHISTV
For B38, the peptide exchange yield was in the range of 50 to 75%.

B39: peptide ILTELPPGV (peptide)
peptide: ILTELPPGV
B39 came in with a peptide exchange yield of 20 to 50%.
